Results from patent publication US20240269235A1.
Read-outs that look alike come from different tables or passages of the source.

Assays:
Test in all cases: cell-based or functional assay
[1] = target: trimeric murine IL-2 receptor (IL-2Rα, IL-2Rβ, and IL-2Rγ) on CTLL-2 cells (murine) (UniProt P01590)
[2] = target: human IL-2Rα on Treg cells (CD3+, CD4+, CD25hi, FoxP3+) of human PBMC (human) (UniProt P01589)
[3] = target: trimeric murine IL-2 receptor (IL-2Rα, IL-2Rβ, and IL-2Rγ) on CTLL-2 cells (murine) (UniProt P01590); remark: listed apart in the source

Chain of trimeric murine IL-2 receptor (IL-2Rα, IL-2Rβ, and IL-2Rγ) on CTLL-2 cells (murine) (P01590 22-268, chain 1 of 3): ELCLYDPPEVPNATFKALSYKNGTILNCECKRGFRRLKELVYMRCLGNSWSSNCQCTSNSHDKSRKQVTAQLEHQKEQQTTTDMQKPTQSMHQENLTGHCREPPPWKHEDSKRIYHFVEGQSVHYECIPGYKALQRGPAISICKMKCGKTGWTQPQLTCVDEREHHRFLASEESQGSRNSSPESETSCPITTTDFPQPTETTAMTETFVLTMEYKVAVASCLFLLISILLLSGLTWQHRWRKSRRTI
Chain of trimeric murine IL-2 receptor (IL-2Rα, IL-2Rβ, and IL-2Rγ) on CTLL-2 cells (murine) (P16297 27-539, chain 2 of 3, further chain): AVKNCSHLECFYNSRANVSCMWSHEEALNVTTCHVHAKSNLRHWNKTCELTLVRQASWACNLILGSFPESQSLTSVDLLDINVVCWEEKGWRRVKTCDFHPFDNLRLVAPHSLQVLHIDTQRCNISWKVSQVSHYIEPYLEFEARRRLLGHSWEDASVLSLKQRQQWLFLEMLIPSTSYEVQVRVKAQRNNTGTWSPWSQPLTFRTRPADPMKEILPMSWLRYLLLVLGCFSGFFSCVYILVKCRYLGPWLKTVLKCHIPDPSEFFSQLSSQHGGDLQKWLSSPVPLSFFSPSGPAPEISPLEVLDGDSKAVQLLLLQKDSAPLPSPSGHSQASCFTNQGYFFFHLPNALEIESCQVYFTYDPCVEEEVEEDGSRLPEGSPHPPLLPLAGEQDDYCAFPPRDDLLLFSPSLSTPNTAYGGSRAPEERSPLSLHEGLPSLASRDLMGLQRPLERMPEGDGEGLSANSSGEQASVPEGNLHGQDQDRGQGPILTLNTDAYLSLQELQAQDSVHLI
Chain of trimeric murine IL-2 receptor (IL-2Rα, IL-2Rβ, and IL-2Rγ) on CTLL-2 cells (murine) (P34902 23-369, chain 3 of 3, further chain): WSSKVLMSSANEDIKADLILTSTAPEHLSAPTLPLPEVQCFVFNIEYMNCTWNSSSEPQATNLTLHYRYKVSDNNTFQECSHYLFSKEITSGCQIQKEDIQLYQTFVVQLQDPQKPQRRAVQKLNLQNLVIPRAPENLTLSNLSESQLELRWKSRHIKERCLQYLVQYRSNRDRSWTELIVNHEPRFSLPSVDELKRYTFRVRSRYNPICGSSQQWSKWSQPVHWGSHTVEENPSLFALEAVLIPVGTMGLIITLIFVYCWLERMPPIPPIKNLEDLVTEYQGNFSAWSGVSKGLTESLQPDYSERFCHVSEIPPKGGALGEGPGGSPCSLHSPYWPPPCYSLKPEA
Chain of human IL-2Rα on Treg cells (CD3+, CD4+, CD25hi, FoxP3+) of human PBMC (human) (P01589 22-272): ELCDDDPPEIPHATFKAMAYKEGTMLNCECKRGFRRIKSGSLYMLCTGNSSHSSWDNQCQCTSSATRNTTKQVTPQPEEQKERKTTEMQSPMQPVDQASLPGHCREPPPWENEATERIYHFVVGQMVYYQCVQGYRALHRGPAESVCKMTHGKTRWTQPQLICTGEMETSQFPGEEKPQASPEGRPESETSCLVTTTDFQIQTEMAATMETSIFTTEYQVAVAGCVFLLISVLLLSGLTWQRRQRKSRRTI

STAT5 activation of CTLL-2 cells, EC50 [1]: 2 pM
Treg EC50, STAT5 activation (PBMC STAT5 assay) [2]: < 1 pM
STAT5 activation of CTLL-2 cells, EC50 [3]: 6 pM
Substance: Proleukin (from UniProt P60568 22-153) (ligand)
